Laboratory results: patent publication US20190284293A1 (Bristol-Myers Squibb, published 2019)
Changes are numbered by the printed parent chain. Numbers in names are those of the source.

B1: 11A6 (antibody, human IgG1, kappa, V domains shown)
VH: EVQLVESGGNLVQPGRSLRLSCAASGFTFDDYAMHWVRQAPGKGLEWVSGISWNNNDIGYADSVKGRFIISRDNAKNSLYLQMNSLRPEDTALYYCVKGYYVILTGLDYWGQGTPVTVSS
VL: DIQMTQSPSSLSASVGDRVTITCRASQGISSWLAWYQQKPEKAPKSLIYAASSLQSGVPSRFSGSGSGTDFTLTISSLQPEDFATYYCQQYNSYPLTFGGGTKVEIKR
notes: IgG1za; also called 11A6-1
B2: 5F8 (antibody, human IgG1, kappa, V domains shown)
VH: EVQLVESGGGLVQPGGSLRLSCAASGFTFSSYWMHWVRQAPGKGLVWVSRIISDGSSTGYADSVKGRFTISRDNAKNTLYLQMNSLRAEDTAVYYCAREFSSGWYFDYWGQGTLVTVSS
VL: AIQLTQSPSSLSASVGDRVTITCRASQGISSALAWYQQKPGKAPKLLIYDASSLESGVPSRFSGSGSGTDFTLTISSLQPEDFATYYCQQFSSYPRTFGQGTKVEIKR
notes: IgG1za; VK2 also expressed; also called 5F8-1
B3: 7A11 (antibody, human IgG1, kappa, V domains shown)
VH: EVQLVESGGGLVQTGRSLRLSCAASGFTFDDYAMHWVRQAPGKGLEWVSDISWNSDIIGYADSVKGRFTISRDNAKNSLYLQMNSLRAEDTALYYCAKDIYGSGSSFFDYWGQGILVTVSS
VL: B1 VL with G28Y, N92H, L96P, G100Q, K103R, V104L
notes: IgG1za; also called 7A11-1
B4: 10D2 (antibody, human IgG4, kappa, V domains shown)
VH: QVQLVESGGGVVQPGRSLRLSCAASGFTFSNYGLHWVRQAPGKGLEWVAVIRYDGSNKYYADSVKGRFTISRDNSKNTLYLQMSSLRAEDTAVYYCARGGSSWYPDGLDVWGQGTTVTVSS
VL: B1 VL
notes: also called 10D2-2
B5: 24H2 (antibody, human IgG4, kappa, V domains shown)
VH: B4 VH with L34M, R52W, S56G, Y80F, S84N, G107A, L108F, V110I, T116M
VL: B1 VL
notes: also called 24H2-1
B6: CD73.4-IgG2.3-plusTHT (antibody)
heavy: QVQLVESGGGVVQPGRSLRLSCAASGFTFSNYGMHWVRQAPGKGLEWVAVILYDGSNKYYPDSVKGRFTISRDNSKNTLYLQMNSLRAEDTAVYYCARGGSSWYPDSFDIWGQGTMVTVSSASTKGPSVFPLAPCSRSTSESTAALGCLVKDYFPEPVTVSWNSGALTSGVHTFPAVLQSSGLYSLSSVVTVPSSNFGTQTYTCNVDHKPSNTKVDKTVERKSCVETHTCPPCPAPPVAGPSVFLFPPKPKDTLMISRTPEVTCVVVDVSHEDPEVQFNWYVDGVEVHNAKTKPREEQFNSTFRVVSVLTVVHQDWLNGKEYKCKVSNKGLPAPIEKTISKTKGQPREPQVYTLPPSREEMTKNQVSLTCLVKGFYPSDIAVEWESNGQPENNYKTTPPMLDSDGSFFLYSKLTVDKSRWQQGNVFSCSVMHEALHNHYTQKSLSLSPGK
light: not shown
B7: CD73.4-IgG2.3-plusGGG (antibody)
heavy: B6 heavy with T227G, H228G, T229G
light: not shown
B8: CD73.4-IgG2.5-plusTHT (antibody)
heavy: B6 heavy with C135S, S223C
light: not shown
B9: CD73.4-IgG2.5G1-KH (antibody)
heavy: QVQLVESGGGVVQPGRSLRLSCAASGFTFSNYGMHWVRQAPGKGLEWVAVILYDGSNKYYPDSVKGRFTISRDNSKNTLYLQMNSLRAEDTAVYYCARGGSSWYPDSFDIWGQGTMVTVSSASTKGPSVFPLAPSSRSTSESTAALGCLVKDYFPEPVTVSWNSGALTSGVHTFPAVLQSSGLYSLSSVVTVPSSNFGTQTYTCNVDHKPSNTKVDKTVERKCCVECPPCPAPPVAGPSVFLFPPKPKDTLMISRTPEVTCVVVDVSHEDPEVKFNWYVDGVEVHNAKTKPREEQYNSTYRVVSVLTVLHQDWLNGKEYKCKVSNKALPAPIEKTISKAKGQPREPQVYTLPPSREEMTKNQVSLTCLVKGFYPSDIAVEWESNGQPENNYKTTPPVLDSDGSFFLYSKLTVDKSRWQQGNVFSCSVMHEALHNHYTQKSLSLSPGK
light: not shown
B10: CD73.4-IgG2.3G1-KH (antibody)
heavy: B9 heavy with S135C, C223S
light: not shown
B11: CD73.4-IgG2.5 (antibody)
heavy: B9 heavy with K274Q, Y296F, Y300F, L309V, A327G, A339T, V397M
light: not shown
B12: CD73.4-IgG2.5G1.1f-KH (antibody)
heavy: B9 heavy with A330S, P331S
light: not shown
B13: CD73.6-IgG2-C219S-IgG1.1f (antibody)
heavy: B9 heavy with G55S, S135C, C223S, A330S, P331S
light: not shown
notes: also called CD73.6-IgG2CS IgG1.1f; mAb-CD73.6-Vh-hHC-IgG2-C219S-IgG1.1f

Each binder was assayed against T1, rhCD73 bound to his-tag magnet beads (human, UniProt P21589 27-547, limits assumed) (assay: cell-based or functional assay).
T1 sequence: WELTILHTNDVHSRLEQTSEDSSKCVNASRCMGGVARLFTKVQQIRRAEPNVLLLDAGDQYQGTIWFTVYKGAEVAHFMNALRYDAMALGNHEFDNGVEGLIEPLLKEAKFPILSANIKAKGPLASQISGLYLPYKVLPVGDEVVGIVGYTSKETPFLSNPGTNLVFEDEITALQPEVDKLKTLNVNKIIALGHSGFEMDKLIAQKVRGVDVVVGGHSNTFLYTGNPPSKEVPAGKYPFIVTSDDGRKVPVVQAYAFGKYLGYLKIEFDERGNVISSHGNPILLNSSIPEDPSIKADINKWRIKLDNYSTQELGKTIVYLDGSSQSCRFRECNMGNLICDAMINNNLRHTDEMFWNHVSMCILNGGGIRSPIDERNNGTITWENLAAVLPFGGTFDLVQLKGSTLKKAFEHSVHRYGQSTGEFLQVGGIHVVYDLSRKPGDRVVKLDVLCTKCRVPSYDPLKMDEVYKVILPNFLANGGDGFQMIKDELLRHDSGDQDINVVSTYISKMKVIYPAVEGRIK

Binder	EC50 (nM), inhibition of bead-bound human CD73 enzymatic activity [nM]
B1	3.12
B2	5.76
B3	2.86
B4	6.94
B5	4.18

What follows are binders tested against T2, human CD73 on cells (human, UniProt P21589 27-549) (assay: cell-based or functional assay).
T2 sequence: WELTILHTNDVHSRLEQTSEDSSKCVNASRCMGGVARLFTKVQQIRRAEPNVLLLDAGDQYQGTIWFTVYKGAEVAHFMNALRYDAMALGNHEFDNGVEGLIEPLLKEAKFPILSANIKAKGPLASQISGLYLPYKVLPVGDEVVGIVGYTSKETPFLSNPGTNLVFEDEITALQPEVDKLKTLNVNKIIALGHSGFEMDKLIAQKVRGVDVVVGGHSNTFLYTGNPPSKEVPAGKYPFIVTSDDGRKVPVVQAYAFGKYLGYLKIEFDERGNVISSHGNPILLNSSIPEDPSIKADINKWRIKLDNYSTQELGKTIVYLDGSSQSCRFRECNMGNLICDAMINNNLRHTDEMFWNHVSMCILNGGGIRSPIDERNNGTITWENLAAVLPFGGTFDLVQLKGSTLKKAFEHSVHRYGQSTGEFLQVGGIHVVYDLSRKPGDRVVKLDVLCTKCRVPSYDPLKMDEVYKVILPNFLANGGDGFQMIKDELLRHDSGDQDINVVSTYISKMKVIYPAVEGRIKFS

Binder	EC50 Calu6 inhibition [nM]	EC50 H292 inhibition [nM]	EC50 SKMEL24 inhibition [nM]
B1	2.21	–	–
B2	8.1	13.5	110
B3	0.95	1.31	3.72

Target: T2, human CD73 on cells
Assay: cell-based or functional assay
Remark: another data set of the same source

Binder	IC50 (nM), cAMP HTRF assay, Calu-6 with HEK293/A2AR cells [nM]	Ymax, cAMP HTRF assay (percent of 100 nM 11F11 control) [%]
B1	4.87	84
B2	13.2	80
B3	0.95	45

Target: T2, human CD73 on cells
Assay: cell-based or functional assay
Remark: another data set of the same source

Binder	EC50 (nM), high-content internalization assay, Calu6, 2 h [nM]	Ymax, high-content internalization assay (percent of 100 nM 11F11) [%]
B3	2.59	50
B4	–	29
B5	8.2	51

Target: T2, human CD73 on cells
Assay: cell-based or functional assay
Remark: another data set of the same source

Binder	CD73 Inhibition S:B (inhibition versus background)	CD73 Inhibition EC50 (nM), cAMP assay, Calu6 [nM]
B6	33	–
B7	–	1.26
B8	44	0.9
B9	42	0.44
B10	52	1.7
B11	51	2.17
B12	45	0.87

Each binder was assayed against T3, N-hCD73-his (N-terminal domain of human CD73, residues 26-336, His tag) (human, UniProt P21589 26-336) (assay: SPR, mAb captured on protein A).
T3 sequence: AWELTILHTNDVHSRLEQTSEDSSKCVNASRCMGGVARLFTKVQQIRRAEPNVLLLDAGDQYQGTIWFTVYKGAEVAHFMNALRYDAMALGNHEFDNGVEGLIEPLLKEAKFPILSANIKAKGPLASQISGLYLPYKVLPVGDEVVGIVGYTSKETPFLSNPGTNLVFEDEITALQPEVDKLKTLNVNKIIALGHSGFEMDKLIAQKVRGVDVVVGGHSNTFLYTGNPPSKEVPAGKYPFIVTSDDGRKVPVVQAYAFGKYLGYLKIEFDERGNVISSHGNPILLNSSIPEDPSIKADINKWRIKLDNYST
Protocol: For these experiments, protein A (Pierce) was immobilized to a density of 3000-4000 RU on flow cells 1-4 of a CM5 sensor chip (GE Healthcare) using standard ethyl(dimethylaminopropyl) carbodiimide (EDC)/N-hydroxysuccinimide […] chemistry, with ethanolamine blocking, in a running buffer of 0.01 M HEPES pH 7.4, 0.15 M NaCl, 3 mM EDTA, 0.005% v/v tween 20. […] The running buffer for the kinetic experiments was 10 mM sodium phosphate, 130 mM sodium chloride, 0.05% tween 20, pH 7.1. The surfaces were regenerated after each cycle using two 30 s pulses of 10 mM glycine pH 1.5 at a flow rate of 30 μl/min. Sensogram data was double-referenced and then fitted to a 1:1 Langmuir model using Biacore T100 evaluation software v2.0.4, to determine the association rate constant (ka), the dissociation rate constant (kd), and the equilibrium dissociation constant (KD).

Binder	Kd [nM]	koff [s⁻¹]	kon [M⁻¹ s⁻¹]
B13	0.72	0.00022	300000
B1	140	0.0076	55000
B2	41	0.006	150000
B3	0.43	0.00038	880000
B4	1.6	0.00095	610000
B5	14	0.0032	230000

The binders below were run against T2, human CD73 on cells (assay: binding titration on Calu6 cells, average of 2-6 experiments).

Binder	EC50 [nM]
B1	1.93
B2	11.7
B3	0.35
